In one data set the target is T1, His-tagged hDHFR (Homo sapiens, UniProt P00374).
T1 construct: made in house
T1 sequence (P00374 1-187): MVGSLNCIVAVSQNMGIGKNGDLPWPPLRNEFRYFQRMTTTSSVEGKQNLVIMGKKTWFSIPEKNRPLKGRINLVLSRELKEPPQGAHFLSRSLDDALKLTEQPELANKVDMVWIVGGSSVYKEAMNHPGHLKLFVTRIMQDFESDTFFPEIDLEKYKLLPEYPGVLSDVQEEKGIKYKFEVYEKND
The data set is described as follows: SPR blank assay on a hDHFR-His-Tag functionalized sensor. Type of data set: binding. The conditions noted are these: same peptide concentrations. Here is the method: (§1) The SPR sensors for screening small peptidic ligand binding to a recombinant soluble His-tagged CD36 functionalized surfaces were prepared as described above. Five ligands were investigated: EP80317, CP-2B(i), CP-3(iv), CP-2A(v) and DBG-178(27) with concentrations ranging from 30 μM to 100 nM except for EP80317. The latter was used for optimizing the system with solutions ranging from 1 mM to 100 nM. EP80317 (HAIC-2MeDTrp-DLys-Trp-D-Phe-Lys-NH2) is a positive control of known activity, CP-2B(i) (His-DTrp-AzaLeu-Trp-DPhe-Ala-NH2) is a negative control, and CP-3(iv) (Ala-DTrp-Ala-AzaPhe-DPhe-Lys-NH2), CP-2A(v) (His-DTrp-AzaGly-Trp-DPhe-Lys-NH2) and DBG-178(27) (His-DTrp-Ala-azaTyr-DPhe-Lys-NH2) are novel CD36 ligands (see PCT publication No. WO 08/154,738). Another negative control was accomplished by exposing the His-tagged hDHFR functionalized surface to the same concentration of CD36 peptidic ligand. Two different approaches were used to remove the His-tagged CD36-Cu complex from the SPR sensors: concentrated histidine solution or saturated EDTA solution.
This is the case of the CD36-ligand system investigated herein, where the ligands are small peptides of about 800 to 1000 g/mol. Indeed, according to the aforementioned principle, the binding of the small peptides to the CD36 receptor should be close to the limit of detection, thus providing unreliable affinity measurements. […]

Data set [1] addresses recombinant soluble His-tagged CD36 (Homo sapiens, UniProt P16671). Briefly: SPR screening of peptide ligands on a CD36 functionalized sensor. Type of data set: binding. The conditions noted are these: increasing ligand concentrations. Here is the method:
as §1
This is the case of the CD36-ligand system investigated herein, where the ligands are small peptides of about 800 to 1000 g/mol. Indeed, according to the aforementioned principle, the binding of the small peptides to the CD36 receptor should be close to the limit of detection, thus providing unreliable affinity measurements. […] This could be a consequence of a large conformational change of the CD36 receptor upon binding of specific ligands, thus providing the amplification sufficient for SPR signal detection.
The SPR setup was used for investigating the structure-activity relationships of various CD36 peptidic ligands. […] The measured KD's were compared to the EC50 values obtained in the activated src-kinase assay following CD36 receptor activation by the tested peptides. […] For the src-kinase cellular assay, the response sensitivity (EC50) for the tested peptides (in decreasing order) was as follows: EP80317>CP-2A(v)>CP-3(iv)>DBG-178(27)>CP-2B(i). With SPR, the binding affinity to CD36, in decreasing order, was: DBG-178(27)>CP-2A(v)>EP80317>CP-3(iv)>CP-2B(i). […] For CD36-peptidic ligands, a correlation appears between the affinity binding of the small peptides for CD36 as determined by SPR and their efficiency to produce a cellular response in the src kinase assay. Thus, SPR appears as a selective and sensitive method to screen for CD36 ligands.

Data set [2] concerns the target T2, human dihydrofolate reductase (hDHFR) (Homo sapiens, UniProt P00374).
T2 construct: made in house
T2 sequence (P00374 1-187): T1 sequence (P00374 1-187)
The data set is described as follows: Real-time UV/Vis monitoring of the enzymatic reaction of immobilized hDHFR. Type of data set: biochemical. As to the method: The peptidomimetic monolayer binding His-tagged biomolecules was exposed for a period of 15 min to a 50 μg/mL PBS solution of His-tagged hDHFR, then rinsed with PBS. The SPR sensor with His-tagged hDHFR was placed in a UV/Vis cuvette, similar to a method developed by Knoll et al. (Xu et al., 2005. Journal of the American Chemical Society 127(38), 13084-13085). His-tagged hDHFR was obtained as previously reported (Volpato et al., 2007 Journal of Molecular Biology 373, 599-611). A negative control, consisting of the peptidomimetic-modified SPR sensor without hDHFR was exposed to buffer and rinsed to verify that the observed change in absorbance was due to immobilized His-tagged hDHFR and not to the surface itself. The enzymatic reaction catalyzed by hDHFR was monitored by UV/Vis spectrometry. The SPR sensors were immersed in a solution of 100 μM NADPH (cofactor) and 100 μM dihydrofolate (DHF, substrate) in 10 mM Tris buffer, pH=8.0, for 1 hour. The activity of the enzyme was measured by following the time course of the absorption (ΔA(t)) at λ=340 nm due to consumption of NADPH and DHF, by subtracting the blank signal (Ablank(t)) and the initial absorbance of the solution (A(O)). The activity was confirmed for each sample of His-tagged hDHFR on the SPR sensor. 1 U of enzyme activity corresponds to conversion of 1 μmol substrate to product per min. Absorption spectra were recorded with a Cary 100 Bio UV/Vis spectrometer equipped with a liquid temperature control system running at 35° C. to be in the optimal condition for the enzymatic reaction to take place. After monitoring the activity, the SPR sensors were rinsed with buffer, 18.2 MΩ water and the His-tagged hDHFR was removed from the surface with a 0.5 M imidazole solution for 10 minutes. […]
In contrast with those results, immobilizing His-tagged hDHFR on the peptidomimetic monolayer allowed to retain the activity of the enzyme. This is observed by a consumption of the reactants (NADPH and DHF), decreasing the absorbance measured at λ=340 nm (FIG. 3). According to the absorption coefficient (Δ∈=12.8 mM^−1 cm^−1), the measured slope (5.7*10 Abs/min) corresponded to an activity of 4.4±0.8*10^−5 U. The specific activity of His-tagged hDHFR previously determined in presence of saturating reactants was 8.5 U/mg. Thus, the activity measured on the surface corresponded to 5±0.9 ng (n=4) of fully active hDHFR. […] The fraction of active enzyme on the surface cannot be determined, because the activity measured for the enzyme immobilized on the surface of the SPR is a factor of the activity of the enzyme (as for the enzyme in solution) and the time required for the products to diffuse in the light beam of the UV-Vis (not a factor for the enzyme in solution). […]

The target of data set [3] is T2, human dihydrofolate reductase (hDHFR). The conditions noted are these: previously determined in presence of saturating reactants; cited from earlier work.

Numbered stars: 1 amine (or outer) side, 2 acyl side, 3 side chain; on linkers, the order of the positions; unused ones are H or OH. Square brackets hold non-standard residues; d marks the D form. Peptide text beside a SMILES is read from it. Haic = O=C1[C@@H](N[*:1])CCc2cccc3c2N1[C@H](C(=O)[*:2])C3; dTrp(2-Me) = Cc1[nH]c2ccccc2c1C[C@@H](N)C(=O)O

Sequence of recombinant soluble His-tagged CD36 (P16671 30-439 limits assumed): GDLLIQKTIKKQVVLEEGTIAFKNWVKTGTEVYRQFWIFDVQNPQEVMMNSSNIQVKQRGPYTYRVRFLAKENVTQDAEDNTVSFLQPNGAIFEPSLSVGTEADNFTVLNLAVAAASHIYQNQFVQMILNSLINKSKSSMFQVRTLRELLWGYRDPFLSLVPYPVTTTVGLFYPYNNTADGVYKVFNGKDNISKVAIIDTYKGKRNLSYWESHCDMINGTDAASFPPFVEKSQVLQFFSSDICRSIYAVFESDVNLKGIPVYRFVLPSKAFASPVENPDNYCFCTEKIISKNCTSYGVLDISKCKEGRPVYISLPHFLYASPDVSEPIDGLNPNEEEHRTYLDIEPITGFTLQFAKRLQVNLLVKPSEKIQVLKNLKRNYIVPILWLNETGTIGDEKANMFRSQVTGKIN

Consider `Cc1[nH]c2ccccc2c1C[C@@H](NC(=O)[C@@H]1Cc2cccc3c2N1C(=O)[C@@H](N)CC3)C(=O)N[C@H](CCCCN)C(=O)N[C@@H](Cc1c[nH]c2ccccc12)C(=O)N[C@H](Cc1ccccc1)C(=O)N[C@@H](CCCCN)C(N)=O` [EP80317, HAIC-2MeDTrp-DLys-Trp-D-Phe-Lys-NH2, reference compound] (Haic-[dTrp(2-Me)][dK]W[dF]K-NH2; N-terminus assumed), for which the “Change of SPR signal on hDHFR-His-Tag functionalized sensor” value on His-tagged hDHFR is reported as “no significant change of signal”. In data set [1], the “Change of SPR signal on CD36-His-tag-functionalized surface” value was “large shift in the signal”.

B1: His-tagged hDHFR: His-tagged human dihydrofolate reductase immobilized on the SPR sensor (protein)
chain: T1 sequence (P00374 1-187)
modifications: left off: small tags and cut ends
notes: His-tagged human dihydrofolate reductase immobilized on the SPR sensor
Turning to B1, the “Enzyme activity after covalent immobilization” value in data set [2] (covalently immobilized to 16-MHA using EDC/NHS chemistry) is “inactive”. Moreover, the “Average variation of the absorbance value over 60 minutes” value in data set [2] (four sensors regenerated with imidazole, n=8) is on record as −0.034±0.006. Besides, the “Enzyme activity of immobilized enzyme” value in data set [2] (immobilized on peptidomimetic monolayer, absorbance at 340 nm) is 4.4±0.8*10^−5 U. The “Amount of fully active enzyme corresponding to the measured surface activity” value in data set [2] (n=4) was determined as 5 ± 0.9 ng. The Specific activity in data set [3] is reported as 8.5 U/mg.

The record behind these values is patent publication US8680233B2, “Heteropeptides useful for reducing nonspecific adsorption” (Valorisation-Recherche, Limited Partnership, priority 2009, dated 2014).
